Data from patent US20080220446A1, “Method for Detecting and/or Removing Protein and/or Peptide Comprising a Cross-Beta Structure From an Aqueous Solution Comprising a Protein” (priority 2005, published 2008).

Key:
tPA [1] = target: T1, tPA (Homo sapiens, UniProt P00750); assay: tPA ELISA with coated protein therapeutics; assay type: binding; details: for binding of tPA: ELISA, stored at the recommended temperature of 4° C.
Procedure: Formulated protein therapeutics were obtained from the local hospital pharmacy and were used as supplied by the manufacturers. […] Lyophilized therapeutics were dissolved according to the manufacturers recommendations. GH, zinc-insulin, Cealb and gelatin were stored at −20, 4, room temperature, 37 and 65° C. Other protein therapeutics were only kept at 4° C., and assayed for the presence of cross-β structure at shown time points. Enhancement in fluorescence of ThT and Congo red was measured with all formulated protein therapeutics. For this purpose, proteins were diluted to the indicated concentrations. […] Zinc-insulin was diluted tenfold in the activation assay, GH was diluted to a final concentration of 500 μg ml^−1. Activation of factor XII and prekallikrein by the therapeutics was tested in the chromogenic factor XII assay (see above). […] After coating, plates were blocked with Blocking Reagent (Roche Diagnostics, Almere, The Netherlands).

[2] = ThT fluorescence enhancement by biopharmaceuticals; assay type: physicochemical; details: +/− SD; five μL of protein therapeutic
Procedure: Fluorescence of ThT—protein/peptide adducts was measured as follows. […] Fluorescence was measured at 485 nm upon excitation at 435 nm. Background signals from buffer, buffer with ThT and protein/peptide solution without ThT were subtracted from corresponding measurements with protein solution incubated with ThT. Regularly, fluorescence of Aβ was used as a positive control, and fluorescence of FP10, a non-amyloid fibrin fragment^16, was used as a negative control. Fluorescence was measured in triplicate on a Hitachi F-4500 fluorescence spectrophotometer (Ltd., Tokyo, Japan).
(§1) β2-GPI was reduced and alkylated as follows. Sixhundredforty μl of β2-GPI stock was mixed with 640 μl of 8 M Urea (cooled solution) in 0.1 M Tris pH-8.2. The solution was degassed with N2 gas for approximately 6 minutes. From a 1 M DTT stock 12.8 μl was added to the solution, mixed and incubated for 3 hours at room temperature. A 1 M Iodoacetamide (Sigma; I-6125) was prepared, of which 25.6 μl was added to the β2-GPI reaction mixture. The solution was subsequently dialysed against PBS. […] Signals obtained with alkyl-β2gpi are compared with those obtained with native β2gpi starting material and with positive control acid/heat denatured amyloid-like misfolded γ-globulins.
(§2) Protein therapeutics were obtained from the local hospital pharmacy and analyzed within the expiry limits as stated by the manufacturers.
(§3) Fluorescence of Thioflavin T (ThT; Sigma T-3516, St. Louis, Mo., USA) and Congo red (CR; Aldrich Chemical Company Inc., Milwaukee, Wis., USA) was measured on a Hitachi F-4500 spectrophotometer at an excitation wavelength of 435 nm and emission wavelength of 485 nm for ThT and an excitation wavelength of 550 nm and emission wavelength of 595 nm for Congo red. […] Fluorescence was measured in triplicate. Background fluorescence of both protein in buffer and dye-solution were subtracted from the total fluorescence signal. Five μg/mL fibrillar amyloid-β(1-40) E22Q (Peptide Synthesis Facility of the Dutch Cancer Institute NKI, Amsterdam, The Netherlands) was used as a positive control in all fluorescence assays.

[3] = Congo red fluorescence enhancement by biopharmaceuticals; assay type: physicochemical; details: +/− SD; five μL of protein therapeutic
Procedure: Background signals from buffer, buffer with Congo red and protein/peptide solution without Congo red were subtracted from corresponding measurements with protein solution incubated with Congo red. Fluorescence was measured in triplicate on a Hitachi F-4500 fluorescence spectrophotometer (Ltd., Tokyo, Japan).
as §2, §3

tPA [4] = target: T1, tPA; assay: tPA/plasminogen activation assay; assay type: biochemical; details: % of standardized positive control; 1:10 diluted samples
Procedure: as §1
Exiqon Peptide Immobilizer plates were blocked for 1 hour with PBS, 1% Tween20 and rinsed twice with distilled water. The conversion of the chromogenic substrate S-2251 (Chromogenix, Italy) by plasmin was kinetically measured at 37° C. on a Spectramax340 microplate reader at a wavelength of 405 nm. […] Denatured γ-globulins (100 μg/ml) with amyloid-like structure was used as reference and positive control. Lyophilized γ-globulins (Sigma, Mo., USA) were dissolved in a 1(:)1 volume ratio of 1,1,1,3,3,3-hexafluoro-2-propanol and trifluoro-acetic acid and subsequently dried under air. Dried γ-globulins was dissolved in H2O to a final concentration of 1 mg/ml and kept at room temperature for at least three days and subsequently stored at −20° C.
as §2

T1 sequence (P00750 36-562): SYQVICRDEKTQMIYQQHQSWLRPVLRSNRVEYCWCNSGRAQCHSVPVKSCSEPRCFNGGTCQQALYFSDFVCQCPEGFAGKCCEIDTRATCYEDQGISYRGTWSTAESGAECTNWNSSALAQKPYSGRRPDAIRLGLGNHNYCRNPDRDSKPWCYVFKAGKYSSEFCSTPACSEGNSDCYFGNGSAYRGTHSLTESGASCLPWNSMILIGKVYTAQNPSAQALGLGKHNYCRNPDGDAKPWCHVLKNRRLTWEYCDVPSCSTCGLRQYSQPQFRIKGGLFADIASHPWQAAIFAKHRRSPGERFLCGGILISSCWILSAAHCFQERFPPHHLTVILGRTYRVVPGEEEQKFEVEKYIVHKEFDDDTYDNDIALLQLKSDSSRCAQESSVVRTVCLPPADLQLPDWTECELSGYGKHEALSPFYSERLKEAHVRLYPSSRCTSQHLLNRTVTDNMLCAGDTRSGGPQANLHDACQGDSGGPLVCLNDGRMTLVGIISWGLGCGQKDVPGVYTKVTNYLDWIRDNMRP

| binding of tPA (tPA [1]) | tPA activation Max. Activation (tPA [4]) | Kd (tPA [1]; tPA ELISA, immobilized protein, stored at 4° C., read-out: KD of tPA binding) | Substance | Fluorescence ThT [2] | Fluorescence CR [3] |
| --- | --- | --- | --- | --- | --- |
| binding of tPA was established | 0% | – | Abciximab: abciximab, an inhibitor of blood platelet aggregation (ReoPro, Centocor) | 8 +/− 8 a.u. | 25 +/− 1 a.u. |
| binding of tPA was established | 113.95% | 72 nM | Somatropin: human growth hormone (Genotropin, Pharmacia) | 1317 +/− 10 a.u. | 429 +/− 2 a.u. |
